Measurements as given in US6670452B2, “Non-naturally occurring lipoprotein particle” (University of Strathclyde, priority 1996, dated 2003).
Entries after “also recorded” stand apart in the source; their conditions may differ. No end group written: not given here. lipid anchor = not defined here

Tests used:
U937 cells = assay: U937 cell growth (proliferation) assay; assay type: cell-based; conditions: DFCS 5% v/v, peptide 0.03 mol/mol cholesterol oleate, 72 hours, range of cholesterol concentrations
Experimental: U937 stock cultures were grown at 37° C. in RPMI 1640 media supplemented glutamine (10 mM), gentamicin (50 μg/ml), fungizone (0.5 μg/ml) and 10% (v/v) foetal calf serum (FCS). Cells were maintained in a humidified 5% CO2, atmosphere between 1-8×10^5 cells/ml and sub-cultured twice weekly.
All growth assays were conducted over 72 hours in 24 well plates unless otherwise indicated. One day before each growth experiment, cells were centrifuged at 1500 rpm for 5 minutes and resuspended in RPM: medium containing 5% (v/v) delipidated foetal calf serum (DFCS) to initiate cholesterol starvation and up regulate LDL receptors. Cells were collected by centrifugation and seeded at 1×10^5/well. Appropriate amounts of cholesterol (either LDL, microemulsion or nLDL) were then added after filtration (0.2 μm) and the well volume made up to 1 ml with RPMI containing 5% (v/v) DFCS. After 72 hours an aliquot of each well was diluted with PBS and the number of cells present determined in triplicate by Coulter Counter. Different concentrations were repeated four or eight times depending on the experiment. Three wells per experiment were checked at random before commencement of incubation to ensure a uniform cell density was achieved. […] In all cases, the mean starting cell densities of control resells were between 0.95 and 1.05×10^5 cells/ml.

[1] = Particle size by photon correlation spectroscopy; assay type: physicochemical; conditions: for Peptide concentration producing increases in diameter: FIG. 8; for Effect of increasing peptide concentration on particle diameter: FIG. 8, Number Mean Diameter
Experimental: Particle size analysis was carried out using photon correlation spectroscopy (Zetasizer® Model 4, Malvern Instruments, Malvern, (UK). Before analysis samples were diluted with Tris-HCl buffer (0.01M) and filtered (0.2 μm). Sizing measurements were carried out at a fixed angle of 90° to the incident beam. The correlator was operated in parallel mode to allow for more accurate size distribution measurements. The cumulants method of analysis was used to calculate the mean sample size weighted according to the intensity of scattered light (z-average diameter). Since this diameter is weighted strongly on favour of large particles, Rayleigh theory was used to convert intensity distributions into number distributions [^12]. The viscosity and refractive index values of pure water were used in the size calculations. All results quoted are the mean and standard deviation of at least 10 measurements.

[2] = Zeta potential measurement; assay type: physicochemical; conditions: for Zeta potential increase at low peptide concentrations: below 0.2 moles/mole CO, diameter unchanged; for Changes of mean number diameter and zeta potential in altered surface lipid formulations (FIG. 10): microemulsion formulations with PC, SM, UC, TO, CO; for Zeta potential reached with increasing peptide concentration: plateau / constant value, FIG. 8, pH 8.0 Tris, 25° C.
Experimental: Samples were diluted 1 in 5 with 0.01M Tris buffer (pH 8.0) and zeta potential measured at 25° C. using the Zetasizer® 4 (Malvern Instruments). The applied voltage was 150V in each case and duty cycling was used to limit the cell current to 20 mA. All results quoted are the mean and standard deviation of at least 10 measurements.

B16 cells = assay: 14C-nLDL cell binding assay at 4° C.; conditions: peptide 0.03 mol/mol cholesterol
Experimental: The required quantity of 14C-cholesteryl oleate (0.5 μCi-/mmol CO, supplied dissolved in toluene) was mixed if required with ten times its volume of DMSO prior to addition to stirred nLDL heated at 55° C. in a water bath. After incubation for 5 hours the mixture was passed down a Sephadex G-25M gel exclusion chromatography column (bed volume 10 ml) eluted with PBS. Fractions (1 ml) were collected their absorbance (300 nm) and 14C-cholesteryl oleate activity measured. Labelled preparations were filter sterilised (0.2 μm) and stored at 4° C. under N2 before use.
B16 cells were maintained in RPM: 1640 medium supplemented with 10% v/v FCS incubated at 37° C. in a 5% CO2 in air atmosphere. Confluent cultures were trypsinised, harvested and re-seeded at a dilution of 1 in 20 in fresh medium.
B16 cells were harvested in the log growth phase, washed by centrifugation and re-seeded into 24 well plates 1×10^5 cells/ml in media containing 10 v/v DFCS. After overnight incubation the cells were cooled to 4° C. for 1 hour, the media aspirated and replaced with ice cold media containing 10% v/v DFCS, supplemented with 14C-nLDL at a cholesterol concentration of 0.08 mmol/l. Four replicate wells were used for each concentration. Cells were then incubated at 4° C. for 4 hours with occasional rocking, the media aspirated and cells washed three times with ice cold PBS/BSA buffer (2 mg/ml BSA in PBS) followed by two ten minute incubations with ice cold PBS/BSA. Three final washes with ice cold PBS were then conducted. The 14C-cholesteryl oleate was extracted with hexane/isocropanol for 30 minutes at room temperature, aspirated and then mixed with 3 ml of scintillation fluid prior to counting. Cellular protein left in the well after extraction was assayed using Peterson's modification of the Lowry method^14. Sodium deoxycholate (1.5 mg/ml) was added to solubilise the protein, which was then precipitated by the addition of trichloroacetic acid (72% w/v), pelleted by centrifugation (5,000 rpm 10 minutes), the supernatant discarded and the pellet solubilised in Lowry reagent at room temperature for 20 minutes. Folin Ciocalteu's reagent was added, the solutions mixed and the colour allowed to develop for 30 minutes prior to absorbance measurements at 690 nm using a plate reader. A calibration curve was clotted from BSA standards ranging from 20 to 200 μg/ml.

Row | Substance | Growth of U937 cells induced by different nLDL preparations (FIG. 4) (U937 cells) | Peptide concentration producing increases in diameter [1] [moles /mole CO] | Effect of increasing peptide concentration on particle diameter [1] | Zeta potential increase at low peptide concentrations [2] | Effect of peptide on zeta potential ([2]; increasing peptide concentrations, FIG. 8) | Changes of mean number diameter and zeta potential in altered surface lipid formulations (FIG. 10) [2] | Total binding curve to B16 cells (FIG. 11) (B16 cells) | Difference in zeta potential between the lipid formulations ([2]; FIG. 10) | Zeta potential reached with increasing peptide concentration [2]
1 | Peptide C: twenty two amino acid peptide containing the Apo B binding region, with both lipid anchors (FIG. 7) ({lipid anchor}-YKLQGTTRLTRKRGLKLATALS; not fully specified (C-terminus); reading uncertain; also: C-terminal lipid anchor) | greatest increase in proliferation | 0.2 | diameter almost doubles | double the effect | reversal of zeta potential | large alterations in both parameters | saturable increase in total binding |  | 
2 | Peptide A: eleven amino acids Apo B binding site peptide with both C and N terminal lipid anchors (FIG. 7) ({lipid anchor}-LRLTRKRGLKL; not fully specified (C-terminus); reading uncertain; also: C-terminal lipid anchor) | least effective | 0.5 | Below 0.5 moles/mole Co Peptide A has no effect on size | roughly equal |  | reversal of zeta potential with little change in diameter |  | significant difference in zeta potential between the lipid formulations | around +17 mV
3 | Peptide E: random, non Apo B binding region sequence based on the amino acids of the previous peptides (FIG. 7) (TGKRYRLKTLRTLKKTSLLEAA; ()..() Synthesised peptide analogue of the Apo B 100 binding site) | least effective |  |  |  |  |  | saturable increase in total binding |  | 
4 | Peptide D: twenty two amino acid peptide with the cholesterol anchor removed (FIG. 7) (YKLEGTTRLTRKRGLKLATALS; also: lipid anchor, cholesterol anchor removed) | greatest increase in proliferation |  |  |  |  |  | saturable increase in total binding |  | 
5 | Peptide B: eleven amino acid Apo B binding site peptide without the C-terminal cholesterol anchor (FIG. 7) ({lipid anchor}-GTTRLTRKRGLKL; not fully specified; reading uncertain) | greatest increase in proliferation |  | size also remains constant; also recorded: no effect at any concentration | roughly equal |  | reversal of zeta potential with little change in diameter | saturable increase in total binding |  | ~+15 mV
